The text below walks through data of patent US20170360778, “Methods for Treating a Cytomegalovirus Infection” (The J. David Gladstone Institutes, published 2017).

The data set deals with T1, IE2 (IE86) MBP fusion (Human cytomegalovirus, UniProt P19893 P19893:1-580).
T1 sequence: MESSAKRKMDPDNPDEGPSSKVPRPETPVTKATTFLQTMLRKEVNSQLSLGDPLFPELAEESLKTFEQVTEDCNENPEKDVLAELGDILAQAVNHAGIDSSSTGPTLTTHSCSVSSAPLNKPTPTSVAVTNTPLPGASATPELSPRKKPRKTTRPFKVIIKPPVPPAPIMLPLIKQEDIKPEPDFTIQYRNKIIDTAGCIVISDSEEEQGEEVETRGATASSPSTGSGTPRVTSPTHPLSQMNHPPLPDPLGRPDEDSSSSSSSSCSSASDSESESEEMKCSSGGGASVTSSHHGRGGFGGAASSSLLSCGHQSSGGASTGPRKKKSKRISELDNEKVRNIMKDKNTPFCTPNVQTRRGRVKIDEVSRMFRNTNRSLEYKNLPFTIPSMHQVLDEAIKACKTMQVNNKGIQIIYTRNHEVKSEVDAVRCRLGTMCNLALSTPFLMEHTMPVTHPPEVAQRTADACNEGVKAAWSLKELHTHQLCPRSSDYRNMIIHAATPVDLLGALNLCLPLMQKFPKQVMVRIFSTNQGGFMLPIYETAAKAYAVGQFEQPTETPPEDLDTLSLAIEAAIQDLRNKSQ
Description: EMSA; IE2-CRS EMSA in presence of various amounts of Hoechst 33258 (BB33258); exact probe sequence not stated, CRS core given. Conditions: tags: MBP fusion, expressed in E. coli BL21, amylose column.

B1: hCMV CRS (IE2 binding site) (dsDNA)
DNA 1: TCGTTTAGTGAACCG
DNA 2: CGGTTCACTAAACGA
Take B1: the binding result was “binds”.
